# In PMC10883291:
# B1: BMS-986351 (antibody, V domains shown)
# VH: QVQLVQSGAEVKKPGASVKVSCKASGYTFRGYGISWVRQAPGQGLEWMGWISAYGGETNYAQKLQGRVTMTTDTSTSTAYMELRSLRSDDTAVYYCAREAGSSWYDFDLWGRGTLVTVSS
# VL: DIQMTQSPSSVSASVGDRVTITCRASQGISSWLAWYQQKPGKAPKLLIYAASNLQSGVPSRFSGSGSGTDFTLTISSLQPEDFATYYCQQGASFPITFGGGTKVEIK
# B2: BMS-986351-Fab (Fab, V domains shown)
# VH: QVQLVQSGAEVKKPGASVKVSCKASGYTFRGYGISWVRQAPGQGLEWMGWISAYGGETNYAQKLQGRVTMTTDTSTSTAYMELRSLRSDDTAVYYCAREAGSSWYDFDLWGRGTLVTVSS
# VL: DIQMTQSPSSVSASVGDRVTITCRASQGISSWLAWYQQKPGKAPKLLIYAASNLQSGVPSRFSGSGSGTDFTLTISSLQPEDFATYYCQQGASFPITFGGGTKVEIK
# Key:
# [1] = target: FcγR3A (CD16aV158) (human); experiment: FRET or BRET; time-resolved FRET (Cisbio); FcγRs expressed on HEK293 cells (Tb donor cells); IgG-d2 acceptor conjugate displaced by the test antibodies; EC50 by the manufacturer's protocol
# Chain of FcγR3A (CD16aV158) (human) (P08637 17-254 F176V): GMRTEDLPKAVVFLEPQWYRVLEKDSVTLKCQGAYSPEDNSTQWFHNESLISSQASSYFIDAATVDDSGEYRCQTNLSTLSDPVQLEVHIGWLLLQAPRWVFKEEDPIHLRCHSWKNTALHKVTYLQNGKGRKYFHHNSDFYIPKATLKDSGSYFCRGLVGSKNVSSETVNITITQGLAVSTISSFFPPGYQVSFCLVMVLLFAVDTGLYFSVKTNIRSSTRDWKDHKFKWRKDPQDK
# [2] = target: FcγR2A (CD32aR131) (human); experiment: as above
# Chain of FcγR2A (CD32aR131) (human) (P12318 34-317 H167R): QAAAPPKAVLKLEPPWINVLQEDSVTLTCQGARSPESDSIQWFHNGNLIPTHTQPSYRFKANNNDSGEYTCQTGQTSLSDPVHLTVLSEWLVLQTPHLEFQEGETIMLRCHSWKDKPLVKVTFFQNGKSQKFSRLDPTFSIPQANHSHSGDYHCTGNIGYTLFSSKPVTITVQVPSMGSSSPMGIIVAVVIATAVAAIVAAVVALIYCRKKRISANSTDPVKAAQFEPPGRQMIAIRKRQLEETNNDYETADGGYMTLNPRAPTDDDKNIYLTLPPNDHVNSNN
# [3] = target: SIRPα variant 6 Fc (haplotype v6 ELE) (human) (UniProt P78324); experiment: BLI; Octet, under affinity conditions; SIRPα variants 1-6 Fc captured on anti-human capture tips, dipped into 50 nmol/L BMS-986351-Fab; association 180 s, dissociation 180 s; 2 x 10^-4 is the limit of koff that can be confidently assigned
# Chain of SIRPα variant 6 Fc (haplotype v6 ELE) (human) (P78324 other isoform, or with tags, fused parts or gaps, change not shown): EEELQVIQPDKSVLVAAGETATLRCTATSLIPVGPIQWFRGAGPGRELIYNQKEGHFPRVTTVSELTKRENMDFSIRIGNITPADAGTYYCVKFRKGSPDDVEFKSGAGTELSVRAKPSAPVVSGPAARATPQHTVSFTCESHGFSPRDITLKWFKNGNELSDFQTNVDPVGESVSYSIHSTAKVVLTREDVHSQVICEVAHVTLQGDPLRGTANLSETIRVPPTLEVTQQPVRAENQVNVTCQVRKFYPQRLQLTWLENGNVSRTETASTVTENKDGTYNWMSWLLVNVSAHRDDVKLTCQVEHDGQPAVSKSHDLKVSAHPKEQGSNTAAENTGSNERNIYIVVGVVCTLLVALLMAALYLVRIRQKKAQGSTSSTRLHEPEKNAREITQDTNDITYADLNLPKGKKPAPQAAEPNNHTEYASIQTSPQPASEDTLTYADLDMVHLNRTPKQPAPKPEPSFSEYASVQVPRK
# [4] = target: SIRPα variant 4 Fc (haplotype v4 ESK) (human) (UniProt P78324); experiment: as above
# Chain of SIRPα variant 4 Fc (haplotype v4 ESK) (human) (P78324 other isoform, or with tags, fused parts or gaps, change not shown): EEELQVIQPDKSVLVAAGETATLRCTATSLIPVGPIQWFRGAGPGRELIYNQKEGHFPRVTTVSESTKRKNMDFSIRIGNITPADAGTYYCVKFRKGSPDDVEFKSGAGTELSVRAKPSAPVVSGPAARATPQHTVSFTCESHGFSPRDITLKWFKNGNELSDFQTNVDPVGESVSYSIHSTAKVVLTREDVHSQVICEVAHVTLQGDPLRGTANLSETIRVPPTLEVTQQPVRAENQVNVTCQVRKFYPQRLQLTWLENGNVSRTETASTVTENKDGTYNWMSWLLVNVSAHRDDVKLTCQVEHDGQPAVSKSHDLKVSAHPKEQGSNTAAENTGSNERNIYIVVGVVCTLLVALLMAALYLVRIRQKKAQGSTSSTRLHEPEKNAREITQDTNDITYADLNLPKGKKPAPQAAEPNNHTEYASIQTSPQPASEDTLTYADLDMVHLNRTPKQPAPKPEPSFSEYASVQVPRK
# [5] = target: SIRPα variant 3 Fc (haplotype v3 DLE) (human) (UniProt P78324); experiment: as above
# Chain of SIRPα variant 3 Fc (haplotype v3 DLE) (human) (P78324 other isoform, or with tags, fused parts or gaps, change not shown): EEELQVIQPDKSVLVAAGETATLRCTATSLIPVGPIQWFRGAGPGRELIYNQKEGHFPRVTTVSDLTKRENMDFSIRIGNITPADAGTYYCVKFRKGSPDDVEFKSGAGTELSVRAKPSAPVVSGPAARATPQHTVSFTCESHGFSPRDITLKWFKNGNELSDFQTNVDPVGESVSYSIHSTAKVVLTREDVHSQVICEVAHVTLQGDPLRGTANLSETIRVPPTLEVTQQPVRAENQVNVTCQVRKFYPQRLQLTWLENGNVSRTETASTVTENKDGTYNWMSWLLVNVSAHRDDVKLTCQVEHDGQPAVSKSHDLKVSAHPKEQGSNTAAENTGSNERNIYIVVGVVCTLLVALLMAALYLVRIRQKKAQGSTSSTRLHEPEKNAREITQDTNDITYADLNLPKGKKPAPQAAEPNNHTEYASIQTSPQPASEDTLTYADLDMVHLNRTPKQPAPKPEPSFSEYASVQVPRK
# [6] = target: SIRPα variant 5 Fc (haplotype v5 EPN) (human) (UniProt P78324); experiment: as above
# Chain of SIRPα variant 5 Fc (haplotype v5 EPN) (human) (P78324 other isoform, or with tags, fused parts or gaps, change not shown): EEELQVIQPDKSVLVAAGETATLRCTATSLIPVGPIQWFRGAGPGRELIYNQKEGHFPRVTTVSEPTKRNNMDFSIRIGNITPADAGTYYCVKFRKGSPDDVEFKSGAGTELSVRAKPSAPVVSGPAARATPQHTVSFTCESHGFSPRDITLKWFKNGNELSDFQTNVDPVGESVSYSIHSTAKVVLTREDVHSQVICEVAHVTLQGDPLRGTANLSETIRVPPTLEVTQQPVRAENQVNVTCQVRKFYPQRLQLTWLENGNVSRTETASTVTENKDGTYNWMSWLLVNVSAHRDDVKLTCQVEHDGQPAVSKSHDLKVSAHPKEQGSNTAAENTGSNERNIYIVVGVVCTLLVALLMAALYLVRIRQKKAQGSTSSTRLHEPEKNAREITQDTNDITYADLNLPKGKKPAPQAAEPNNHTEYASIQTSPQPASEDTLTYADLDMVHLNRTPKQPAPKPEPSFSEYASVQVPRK
binder,measurement,setting,value
B1,EC50,[1],795 nM
same,EC50,[2],188 nM
B2,Kd,[3],0.183 nM
same,koff,[3],0.000356 s⁻¹
same,kon,[3],1.94e+06 M⁻¹ s⁻¹
same,Kd,[4],1.52 nM
same,koff,[4],0.00228 s⁻¹
same,kon,[4],1.5e+06 M⁻¹ s⁻¹
same,Kd,[5],< 0.145 nM
same,koff,[5],< 0.0002 s⁻¹
same,kon,[5],1.38e+06 M⁻¹ s⁻¹
same,Kd,[6],0.611 nM
same,koff,[6],0.00106 s⁻¹
same,kon,[6],1.73e+06 M⁻¹ s⁻¹
